Reference: paper PMC12562681, “Targeting a Tau Kinase Cdk5, Cyclin-Dependent Kinase: A Blood-Based Diagnostic Marker and Therapeutic Earmark for Alzheimer’s Disease” (Biomolecules, 2025)

Tests used:
[1] = target: recombinant human Cdk5 (Cyclin-Dependent Kinase 5) (human) (UniProt Q00535)
[2] = target: recombinant human Cdk5 (Cyclin-Dependent Kinase 5) (human) (UniProt Q00535); experiment: SPR; recombinant Cdk5 immobilised on a Ni-NTA sensor chip (NiCl2 solution, then the protein); peptide YCWS passed over at 0.4, 0.6 and 1 µM; KA and KD calculated with BIA evaluation 3.0 software

peptide YCWS
cell viability (MTT) of differentiated SH-SY5Y cells treated with 20 µM aggregated Aβ25–35 together with YCWS at 2, 5, 10, 15 and 20 µM (77.65% without the peptide) [1]: 98.5%
Kd [2]: 3.94 nM
